In this experiment the target is High-mannose IgG1 antibody (human). Kind of experiment: SPR.

pKd: −log10 of the molar value.

For orientation: pKd means the negative decadic logarithm of the Kd, by convention in mol/L. A higher pKd goes with a small Kd.

On to “EndoS2 E186L (catalytically inactive EndoS2 variant) (from UniProt T1WGN1 44-843) (enzyme)”, for which the negative logarithm of the Kd (pKd) is below 4.00.

The values are drawn from article PMC6439443.
